# According to PMC3794440 (Biochemistry, 2013):
# Like-named read-outs stand apart in the source and are kept apart here.
# Assays:
# wild-type Pin1 [1] = target: T1, wild-type Pin1 (Homo sapiens, UniProt Q13526); test: NMR titration; format: binding; details: read-out: equilibrium dissociation constant Kd (WT), 295 K, 16.4 T, 30 mM imidazole-d4 pH 6.6, 5 mM DTT-d10, 30 mM NaCl, 0.03% NaN3, 90% H2O/10% D2O, uncertainties by jack-knife simulations
# I28A Pin1 = I28A Pin1 (Homo sapiens, UniProt Q13526, I28A); test: NMR titration; format: binding; details: read-out: equilibrium dissociation constant Kd (I28A), 295 K, 16.4 T, 30 mM imidazole-d4 pH 6.6, 5 mM DTT-d10, 30 mM NaCl, 0.03% NaN3, 90% H2O/10% D2O, uncertainties by jack-knife simulations
# wild-type Pin1 [2] = target: T1, wild-type Pin1; test: chromogenic coupled isomerase assay of Kofron et al., WT; format: biochemical; details: chromogenic substrate suc-AEPF-pNA
"Kd (wild-type Pin1 [1]; residue A140, PPIase domain)","Kd (wild-type Pin1 [1]; residue G20, WW domain)","Kd (wild-type Pin1 [1]; residue R14, WW domain)","Kd (wild-type Pin1 [1]; residue R54, PPIase domain)","Kd (I28A Pin1; residue G20, WW domain)","Kd (I28A Pin1; residue R14, WW domain)","Kd (I28A Pin1; residue R54, PPIase domain)",specificity constant kcat/KM (WT) (wild-type Pin1 [2]),Substance
9.7 ± 2 µM,9.1 ± 0.4 µM,2.7 ± 0.7 µM,7.8 ± 0.4 µM,43.5 ± 3 µM,48.5 ± 4.9 µM,110 ± 10 µM,–,EQPLpTPVTDL [Cdc25C phosphopeptide]
–,–,–,–,–,–,–,4250 ± 213 mM^–1 s^–1,WT: full-length wild-type human Pin1 (WW domain and PPIase domain)
